target: unc5b_rat Unc5b (UniProt O08722)
Sequence (O08722 whole entry): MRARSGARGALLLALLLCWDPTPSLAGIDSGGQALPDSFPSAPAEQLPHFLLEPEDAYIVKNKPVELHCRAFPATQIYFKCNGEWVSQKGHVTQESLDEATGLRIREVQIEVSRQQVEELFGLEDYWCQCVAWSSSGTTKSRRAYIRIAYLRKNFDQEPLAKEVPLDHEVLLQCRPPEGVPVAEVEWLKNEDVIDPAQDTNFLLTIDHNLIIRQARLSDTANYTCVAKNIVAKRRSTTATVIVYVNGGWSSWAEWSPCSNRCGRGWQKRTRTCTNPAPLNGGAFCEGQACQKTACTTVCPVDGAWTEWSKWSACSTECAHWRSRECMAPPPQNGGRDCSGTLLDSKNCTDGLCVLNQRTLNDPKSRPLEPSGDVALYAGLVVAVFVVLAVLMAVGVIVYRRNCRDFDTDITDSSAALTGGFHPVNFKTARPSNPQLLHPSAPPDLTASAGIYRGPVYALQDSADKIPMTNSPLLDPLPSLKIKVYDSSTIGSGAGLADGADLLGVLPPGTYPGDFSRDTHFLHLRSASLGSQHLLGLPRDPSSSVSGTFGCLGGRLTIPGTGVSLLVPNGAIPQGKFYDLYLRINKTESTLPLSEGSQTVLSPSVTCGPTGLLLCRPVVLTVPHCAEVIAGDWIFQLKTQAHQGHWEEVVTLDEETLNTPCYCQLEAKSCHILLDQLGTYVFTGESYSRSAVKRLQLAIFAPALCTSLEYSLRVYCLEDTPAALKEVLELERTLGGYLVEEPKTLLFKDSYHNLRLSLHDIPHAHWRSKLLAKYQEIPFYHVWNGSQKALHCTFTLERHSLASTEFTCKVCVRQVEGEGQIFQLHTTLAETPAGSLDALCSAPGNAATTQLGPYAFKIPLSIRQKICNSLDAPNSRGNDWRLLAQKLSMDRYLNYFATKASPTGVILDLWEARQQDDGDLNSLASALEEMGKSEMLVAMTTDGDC

Row | Substance | effect of a mutation on the interaction
1 | Netrin-1 (Homo sapiens) (from UniProt O95631) K358L | decreasing interaction strength
2 | Netrin-1 (Homo sapiens) (from UniProt O95631) N353A | decreasing interaction strength
3 | Netrin-1 (Homo sapiens) (from UniProt O95631) R348A;R349A;R351A | decreasing interaction strength
4 | Netrin-1 (Homo sapiens) (from UniProt O95631) R348W | with no effect
5 | Netrin-1 (Homo sapiens) (from UniProt O95631) S360A | decreasing interaction strength
6 | Netrin-1 (Homo sapiens) (from UniProt O95631) Y357F | with no effect

target: Unc5b, Q8K1S3-1
Sequence (Q8K1S3 whole entry): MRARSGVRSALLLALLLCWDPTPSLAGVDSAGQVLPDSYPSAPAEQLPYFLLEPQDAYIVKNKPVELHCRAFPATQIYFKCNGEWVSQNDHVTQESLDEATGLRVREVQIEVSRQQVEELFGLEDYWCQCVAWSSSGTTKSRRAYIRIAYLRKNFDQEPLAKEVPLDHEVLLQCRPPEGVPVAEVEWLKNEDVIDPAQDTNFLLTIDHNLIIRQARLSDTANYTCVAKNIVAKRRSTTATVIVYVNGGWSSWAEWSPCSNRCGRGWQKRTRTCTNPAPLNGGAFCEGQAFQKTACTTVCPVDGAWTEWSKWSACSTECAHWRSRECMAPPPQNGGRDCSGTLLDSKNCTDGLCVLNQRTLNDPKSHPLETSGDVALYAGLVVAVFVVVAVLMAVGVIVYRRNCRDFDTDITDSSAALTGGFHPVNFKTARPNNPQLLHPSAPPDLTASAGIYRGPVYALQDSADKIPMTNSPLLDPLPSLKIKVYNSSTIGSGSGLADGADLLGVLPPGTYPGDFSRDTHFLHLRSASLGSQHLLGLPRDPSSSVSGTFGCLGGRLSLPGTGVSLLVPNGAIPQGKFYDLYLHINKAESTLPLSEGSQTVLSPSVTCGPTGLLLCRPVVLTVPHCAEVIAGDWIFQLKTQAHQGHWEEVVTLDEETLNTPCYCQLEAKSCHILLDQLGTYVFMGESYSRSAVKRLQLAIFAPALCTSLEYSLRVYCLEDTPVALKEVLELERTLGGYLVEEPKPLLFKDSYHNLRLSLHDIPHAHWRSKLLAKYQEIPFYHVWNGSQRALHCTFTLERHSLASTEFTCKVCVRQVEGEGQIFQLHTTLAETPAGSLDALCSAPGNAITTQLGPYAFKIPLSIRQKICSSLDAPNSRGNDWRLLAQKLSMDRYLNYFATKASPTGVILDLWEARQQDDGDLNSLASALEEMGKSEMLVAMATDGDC

Row | Substance | effect of a mutation on the interaction
7 | Netrin-1 (Mus musculus) (from UniProt O09118) R348A;R349A | disrupting interaction strength
8 | Netrin-1 (Mus musculus) (from UniProt O09118) R351A;N353A | decreasing interaction strength
